Where a SMILES comes first, the peptide text is derived from it. Bridges are numbered along the chain shown (N, C = ends). Where no end group is shown, it is not given here. The star is where a group is joined. DOTA = O=C(O)CN1CCN(CC(=O)O)CCN(CC(=O)*)CCN(CC(=O)O)CC1; 125I = iodine-125 label on tyrosine, [125I]*
How the values were obtained:
[1] = Small-animal PET imaging, HNO223 xenografts; parameters: species or system mice; details: Balb/c nude, mouse, in vivo, iv, total radioactivity
[2] = test system: recurrent hypopharynx carcinoma; details: human, in vivo
Method: (§1) The PET/CT scan was performed 1 and 3 hours post tracer administration with a Biograph mCT Flow™ PET/CT-Scanner (Siemens Medical Solution) using the following parameters: slice thickness of 5 mm, increment of 3-4 mm, soft-tissue reconstruction kernel, care dose Immediately after CT scanning, a whole-body PET was acquired in 3D (matrix 200×200) in FlowMotion™ with 0.7 cm/min. The emission data were corrected for random, scatter and decay. Reconstruction was conducted with an ordered subset expectation maximisation (OSEM) algorithm with 2 iterations/21 subsets and Gauss-filtered to a transaxial resolution of 5 mm at full-width half-maximum (FWHM). Attenuation correction was performed using the low-dose non-enhanced CT data. The quantitative assessment of standardized uptake values (SUV) was done using a region of interest technique.

[3] = test system: NSCLC; details: human, in vivo
Method: as §1

[4] = Small-animal PET imaging, HNO399 xenografts; parameters: species or system mice; details: Balb/c nude, mouse, in vivo, iv, total radioactivity
[5] = in vivo; details: Balb/c nude, mouse, iv, total radioactivity
Method: (§2) All experiments were conducted in compliance with the German animal protection laws. Eight week old Balb c/c nude mice (Charles River Laboratories) were inoculated subcutaneously at the right shoulder with 5×10^6 HNO97 cells in BD MatriGel™ (BD Bioscience). Xenografts were grown to a tumor diameter of 10-15 mm. For small animal-PET imaging mice were anesthetized using isoflurane inhalation and injected via tail-vein with 50 MBq (2 nmol) of the ^68Ga-labeled DOTA-SFITGv6 peptide (see above) solution in 100 μL PBS. Images were recorded on an Inveon small-animal PET scanner (Siemens) using a 60 min emission scan in list mode and a 10 min transmission scan. Images were taken in 3-dimensional (3D) mode and reconstructed iteratively with a fully 3D algorithm from a 256×256 matrix for viewing transaxial, coronal, and sagittal slices of 0.9 mm thickness. Pixel size was 0.38×0.38×0.79 mm3 and transaxial resolution obtained was 0.9 mm. For blocking experiments 100 μL of a 1 mM aqueous solution of SFITGv6 was pre-administered intraperitoneally 30 min before injection of the radiolabeled peptide. Biodistribution studies were performed after administration of 100 μL of a 20 nM ^177Lu-DOTA-SFITGv6 solution (1 MBq) as an intravenous bolus injection into the tail vein of the mice. After different time points (30 min to 6 hours) three animals, respectively, were sacrificed. Peripheral blood, heart, lung, spleen, liver, kidneys, muscle, brain, intestine, and injection site (tail, after intravenous injection only) were collected and weighted. Tissue-associated radioactivity was measured in a gamma counter (Berthold LB951G) and expressed as percentage of the injected dose per gram tissue (% ID/g).
(§3) All animal experiments were conducted in compliance with the German animal protection laws. For in vivo small animal PET imaging and organ distribution studies eight-week old Balb/c nude mice (Charles River Laboratories) were inoculated subcutaneously at the right shoulder with a total of 5×10^6 tumor cells in MatriGel (BD Bioscience). Xenografts were grown until a tumor diameter of 10-15 mm was reached.
(§4) 3-dimensional (3D) PET images of whole mice were captured by the Siemens Inveon PET scanner as described in Example 1. To assess the biodistribution 100 μL of a 20 nM solution (1 MBq) of ^177Lu-DOTA-SFLAP3 and ^177Lu-DOTA-SFITGv6 were administered as an intravenous bolus injection into the tail vein of mice. For each time point (30 min to 6 hours) we sacrificed a total of three animals, and subsequently collected peripheral blood, heart, lung, spleen, liver, kidneys, muscle, brain, and intestine. Tissues were weighed and respective radioactivity was measured by a gamma counter (LB951G, Berthold Technologies). Values were expressed as percentage of the injected dose radioactivity (MBq) per gram tissue (% ID/g).

[6] = test system: HNO97 xenografts; test: in vivo; details: mouse
Method: as §2, §3, §4

[7] = test system: Capan-2 cells; test: In vitro binding, internalization and efflux on Capan-2 cells; type: cell-based, human; details: 60 min
Method: (§5) For in vitro binding Studies, 4*10^5-6*10^5 cells were seeded in 6 well plates and cultivated for 24 to 48 hours. At the start of the experiment the medium was replaced with 1 ml serum free medium with a definite amount of radioactive labeled peptide per well. For normal binding assays the cells were incubated for 60 min at 37° C. and afterwards washed 3 times with PBS (pH 7.4). Cells were lysed with 2 times 0.5 ml of a 0.3 M NaOH +0.2% SDS lysis-buffer. Competition assays were performed with ^125I-labeled and unlabelled (10^−6 to 10^−11M) peptide and incubated at the same time for 60 min.
Cells were incubated for 10 to 240 min with ^177Lu-labelled peptide in internalization assays. After the washing steps, the cells were incubated with 1 ml glycine-HCl (1 M, pH 2.2) buffer for 10 min to remove surface bound peptide. Prior to the lyses the cells were washed again. Values are given as percentage of applied dose per 10^6 cells.
The efflux was tested with ^177Lu-labeled peptides. After 60 min incubation the radioactive medium was removed and 1 ml fresh serum-free medium was added. After additional incubation of 60, 120 or 240 min, cell bound activity was measured.

[8] = test system: HNO399 cells; test: In vitro binding on HNO399 cells; type: cell-based, human; details: 60 min; percent applied dose/10^6 cells
Method: For the assessment of the peptide binding capacity in vitro, 2.5-4×10^5 cells were seeded into 6-well plates and cultivated for 48 h. ^125I-labeled peptide resuspended in 1 mL serum-free medium was added and incubated for either 10 min or 60 min with or without different concentrations of unlabeled peptide (10^−4-10^−11 M). Afterwards, cell monolayers were washed three times with 1 mL phosphate-buffered saline (pH 7.4) to remove unbound peptide and the cells were harvested with 1.4 mL lysis buffer (0.3 M NaOH). […] For the efflux experiments the cells were incubated with ^177Lu-DOTA-labeled peptides for 60 min. Thereafter, radioactive medium was replaced by non-radioactive medium and cell monolayers were incubated for additional 60, 120, and 240 min and afterwards lysed as described earlier. […] Unspecifically bound peptide was removed from the surface by incubation with 1 M glycine-HCl solution (pH 2.2) for 10 min. The monolayer cell was rinsed with PBS and cells were lysed as described before. Radioactivity was determined in a y-counter and calculated as percentage of the applied dose per 1×10^6 cells. Experiments were performed three times, and three repetitions per independent experiment were acquired.

[9] = test system: OV433 and OV429; test: In vitro binding on ovarian cancer cell lines; type: cell-based, human; details: highest binding among tested ovarian cell lines
Method: as §5

[10] = test system: carcinoma cell lines; test: In vitro binding of radiolabeled peptides to several carcinoma cell lines; type: cell-based, human; details: 10^−6 M competitor; all tested HNSCC cell lines
Method: For binding studies, 2.5×10^5 to 4×10^5 cells were seeded in 6-well plates and cultivated for 48 hours. Cells were incubated for 60 min with 1 mL serum-free medium containing the ^125I-labeled peptide (see above). For competition experiments, cells were simultaneously exposed to unlabeled (10^-4 M to 10^-10 M) and ^125I-labeled peptides. After three washing steps with PBS (pH 7.4) the cells were lysed with 0.5 mL of 0.3 M NaOH. Experiments concerning the internalization, kinetics and efflux were additionally performed with ^177Lu-DOTA-SFITGv6. To evaluate kinetics and efflux HNO97 cells were incubated for different time intervals (10 min to 480 min) and 60 min, respectively, with ^177Lu-DOTA-SFITGv6 and lysed as described. To continue with the efflux experiment radioactive medium was replaced by non-radioactive medium and cells were incubated again for 60 to 240 min before measuring radioactivity of the cell lysates and the medium. For internalization experiments the cells were exposed to ^177Lu-DOTA-SFITGv6 for different time intervals (10 to 240 min) at 37° C. and 4° C. After three washing steps with PBS the cells were incubated with 1 mL of glycine-HCl 50 mmol/L in PBS (pH 2.8) for 10 min at RT to remove the surface bound activity. Then, cells were washed with 3 mL of ice-cold PBS and lysed as described. Radioactivity was determined in a gamma counter and calculated as percentage of the applied dose per 1×10^6 cells. Experiments were performed three times, and three repetitions per independent experiment were acquired.
For the assessment of the peptide binding capacity in vitro, 2.5-4×10^5 cells were seeded into 6-well plates and cultivated for 48 h. ^125I-labeled peptide resuspended in 1 mL serum-free medium was added and incubated for either 10 min or 60 min with or without different concentrations of unlabeled peptide (10^−4-10^−11 M). Afterwards, cell monolayers were washed three times with 1 mL phosphate-buffered saline (pH 7.4) to remove unbound peptide and the cells were harvested with 1.4 mL lysis buffer (0.3 M NaOH). To evaluate kinetic properties the cells were exposed to ^177Lu-DOTA-labeled peptides for 10, 30, 60, 120, and 240 min, respectively, and lysed as described. For the efflux experiments the cells were incubated with ^177Lu-DOTA-labeled peptides for 60 min. Thereafter, radioactive medium was replaced by non-radioactive medium and cell monolayers were incubated for additional 60, 120, and 240 min and afterwards lysed as described earlier. The internalization was assessed after exposure of the cells to ^177Lu-DOTA-labeled peptides for 10, 30, 60, 120, and 240 min at 37° C. Unspecifically bound peptide was removed from the surface by incubation with 1 M glycine-HCl solution (pH 2.2) for 10 min. The monolayer cell was rinsed with PBS and cells were lysed as described before. Radioactivity was determined in a y-counter and calculated as percentage of the applied dose per 1×10^6 cells. Experiments were performed three times, and three repetitions per independent experiment were acquired.

| Molecule | SUV at 1 h [1] | SUVmax Elbow [2] | SUVmax Gallbladder [2] | SUVmax Hilar [2] | SUVmax Shoulder [3] | SUV at 1 h [4] | SUV at 1 h [5] | time after injection until radioactivity accumulated in the tumor [6] | time for which tumor accumulation was maintained [6] | time of clearance of non-specific activity from the blood [6] | ^125I-SFLAP3 binding value [7] | binding of ^125I-labeled peptide [8] | binding of ^125I-SFLAP3 [9] | competition of binding by non-radioactively labeled counterpart [10] |
| --- | --- | --- | --- | --- | --- | --- | --- | --- | --- | --- | --- | --- | --- | --- |
| CSCC[C@@H]1NC(=O)[C@H](CC(C)C)NC(=O)[C@H](CC(=O)O)NC(=O)CNC(=O)[C@H](CCCNC(=N)N)NC(=O)[C@H](Cc2ccccc2)NC(=O)[C@H]([C@@H](C)O)NC(=O)[C@@H](NC(=O)[C@H](CCCNC(=N)N)NC(=O)CNC(=O)CN2CCN(CC(=O)O)CCN(CC(=O)O)CCN(CC(=O)O)CC2)CSSC[C@@H](C(=O)N[C@@H](Cc2ccc(O)cc2)C(=O)N2CCC[C@H]2C(=O)N[C@@H](CC(=O)O)C(=O)O)NC(=O)[C@H](CC(C)C)NC(=O)[C@H](CCC(N)=O)NC1=O [^68Ga-DOTA-SFITGv6, metal not drawn] ({DOTA}-GRCTFRGDLMQLCYPD-OH; disulfide 3-13) | 0.23 SUV | 1.70 | 1.90 | 1.00 | 1.50 | 0.33 SUV | 0.68 SUV | ≤ 20 min | at least 140 min | ≤ 60 min | – | – | – | – |
| ^125I-SFLAP3: ^125I-labeled SFLAP3 (GRCTGRGDLGRLCY(125I)PD; disulfide 3-13) | – | – | – | – | – | – | – | – | – | – | 14% | 10.1% | 5% | almost completely competed |

— patent US20200131227A1, “POLYPEPTIDE WITH TUMOUR BINDING ACTIVITY” (RUPRECHT-KARLS-UNIVERSITÄT HEIDELBERG, priority 2017, published 2020)
